# According to paper PMC10033410 (Nature, 2023):
# B1: HIV-1 HXB2 Vif (natural protein)
# chain: not shown
# notes: also called Vif_(HXB2)
# Target: T1, human APOBEC3G (human, UniProt Q9HC16 1-384)
# T1 construct: also called A3G; hA3G; not shown: Strep-tag, C-terminal, kept
# Experiment: cryo-EM structure; single-particle cryo-EM of the co-expressed, co-purified complex (SEC peak fraction, 1.9 μM; 30 mM HEPES, 150 mM NaCl, 5% glycerol, 1 mM TCEP); co-purified insect-cell ssRNA between A3G and Vif; monomer map 2.7 Å, dimer states 1, 1' and 2
# Conditions: both partners purified
# T1 sequence (Q9HC16 whole entry): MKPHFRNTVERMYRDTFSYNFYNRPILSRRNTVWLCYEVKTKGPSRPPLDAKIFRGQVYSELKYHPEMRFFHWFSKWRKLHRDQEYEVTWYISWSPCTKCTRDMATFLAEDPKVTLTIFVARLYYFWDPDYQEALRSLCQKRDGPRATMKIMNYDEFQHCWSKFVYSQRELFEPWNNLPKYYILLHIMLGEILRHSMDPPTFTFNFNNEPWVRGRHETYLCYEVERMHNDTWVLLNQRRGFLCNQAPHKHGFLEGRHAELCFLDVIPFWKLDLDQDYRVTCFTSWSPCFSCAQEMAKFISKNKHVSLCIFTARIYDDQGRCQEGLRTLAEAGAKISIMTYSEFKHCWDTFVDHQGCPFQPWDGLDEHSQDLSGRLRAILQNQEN
binder,measurement,value
B1,binding result,binds
